1 substance from PMC6347451 can be followed below.

The assay has as its target native MICU1 (in the native, disulfide-connected MICU1-2 heterodimer) (human (endogenous in HEK 293)) (UniProt Q9BPX6).
UniProt Q9BPX6, sequence (Q9BPX6 34-476, one chain of several): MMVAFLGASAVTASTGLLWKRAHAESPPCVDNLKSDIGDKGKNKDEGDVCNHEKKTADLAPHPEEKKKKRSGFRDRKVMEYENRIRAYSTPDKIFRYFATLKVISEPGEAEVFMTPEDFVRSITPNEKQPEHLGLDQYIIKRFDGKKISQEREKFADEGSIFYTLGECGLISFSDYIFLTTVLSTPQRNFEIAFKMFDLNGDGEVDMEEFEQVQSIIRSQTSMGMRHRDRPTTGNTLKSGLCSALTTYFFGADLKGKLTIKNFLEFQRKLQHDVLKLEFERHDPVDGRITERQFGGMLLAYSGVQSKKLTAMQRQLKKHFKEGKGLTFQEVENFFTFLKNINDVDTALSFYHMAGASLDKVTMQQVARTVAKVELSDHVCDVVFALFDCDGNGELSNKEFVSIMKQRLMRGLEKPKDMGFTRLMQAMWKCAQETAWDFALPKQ

Turning to “1D4-tagged human MCU D261A (from UniProt Q8NE86 51-351) (natural protein)”, the rate of mitochondrial ^45Ca^2+ uptake in low Ca^2+ (0.5 μM), D261A MCU expressed in MCU-KO cells (gating by MICU1 lost) (pmol/min/10^6 cells) is 34.
